Assay results published in the supplement of paper PMC10724198.
± gives the standard deviation of the averaged measurements.

Columns and labels:
Saccharomyces cerevisiae [1] = assay: protein stability index of tFT-peptide fusion (C-terminal peptide) (PSI (0-1 scale)); higher = more stable (slower turnover)
Description: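 MPS profiling in S. cerevisiae of the tFT-X12 degron library: putative degron peptides plus stable controls, 12 aa, fused to the C-terminus of a sfGFP-mCherry timer. Cells are FACS-sorted into 8 mCherry/sfGFP bins and deep-sequenced. PSI runs from 0 (unstable) to 1 (stable). Backgrounds are wild type, das1Δ and doa10Δ at 30 °C, and wild type, das1Δ, cdc34-1 and cdc53-1 at 37 °C; 2-3 technical replicates each.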

Saccharomyces cerevisiae [2] = assay: as above; details: genetic background: wild type; temperature: 30 C
[3] = genetic background: cdc34-1, temperature: 37 C
[4] = genetic background: cdc53-1, temperature: 37 C
[5] = genetic background: das1 deletion, temperature: 30 C
[6] = genetic background: das1 deletion, temperature: 37 C
[7] = genetic background: doa10 deletion, temperature: 30 C
[8] = genetic background: wild type, temperature: 30 C
[9] = genetic background: wild type, temperature: 37 C
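Also: PSI is a weighted mean of sequencing reads over stability bins, variants kept only with over 10 reads, mCherry proximal and sfGFP distal, peptide attached via GGGS linker.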

Sequence	protein stability index (Saccharomyces cerevisiae [1]; [3])	protein stability index (Saccharomyces cerevisiae [1]; [4])	protein stability index (Saccharomyces cerevisiae [1]; [5])	protein stability index (Saccharomyces cerevisiae [1]; [6])	protein stability index (Saccharomyces cerevisiae [1]; [7])	protein stability index (Saccharomyces cerevisiae [1]; [8])	protein stability index (Saccharomyces cerevisiae [1]; [9])	protein stability index (Saccharomyces cerevisiae [2])
RNNLHKKIRRGY	0.681 ± 0.046	0.752 ± 0.0082	0.661 ± 0.043	0.745 ± 0.033	0.184 ± 0.028	0.251 ± 0.037	0.458 ± 0.013	0.413 ± 0.042
RRLRPQTVAFLS	0.593 ± 0.012	0.717 ± 0.03	0.676 ± 0.021	0.704 ± 0.028	0.159 ± 0.0046	0.176 ± 0.025	0.278 ± 0.0083	0.231 ± 0.04
RRVLVVPCIWHM	0.653 ± 0.031	0.73 ± 0.011	0.604 ± 0.015	0.673 ± 0.048	0.174 ± 0.026	0.223 ± 0.022	0.416 ± 0.022	0.327 ± 0.0065
RSGWWQWGRPGT	0.698 ± 0.031	0.7525 ± 0.0031	0.661 ± 0.033	0.7712 ± 0.0041	0.692 ± 0.034	0.691 ± 0.03	0.734 ± 0.025	0.752 ± 0.049
RSIAFLLGQFLS	0.6679 ± 0.0052	0.745 ± 0.016	0.68 ± 0.027	0.74305 ± 0.00053	0.372 ± 0.019	0.395 ± 0.047	0.637 ± 0.016	0.467 ± 0.013
RSKLGVLVILWF	0.288 ± 0.02	0.391 ± 0.011	0.293 ± 0.031	0.466 ± 0.012	0.243 ± 0.016	0.273 ± 0.025	0.448 ± 0.0055	0.353 ± 0.037
RSYAYIIVATVA	0.153 ± 0.021	0.197 ± 0.0038	0.182 ± 0.026	0.284 ± 0.014	0.14 ± 0.0081	0.178 ± 0.025	0.214 ± 0.024	0.274 ± 0.023
RTALSSPRPALL	0.6896 ± 0.0052	0.7635 ± 0.0053	0.701 ± 0.017	0.75 ± 0.0094	0.7131 ± 0.0061	0.723 ± 0.011	0.733 ± 0.0077	0.7799 ± 0.006
RTFPYSALSFVS	0.618 ± 0.032	0.712 ± 0.013	0.652 ± 0.046	0.718 ± 0.015	0.216 ± 0.022	0.235 ± 0.045	0.445 ± 0.048	0.457 ± 0.013
RVFRRFCCVISM	0.312 ± 0.034	0.342 ± 0.018	0.342 ± 0.029	0.49 ± 0.045	0.437 ± 0.027	0.339 ± 0.022	0.439 ± 0.015	0.366 ± 0.025
RVFVGLVDFLFW	0.437 ± 0.033	0.553 ± 0.073	0.402 ± 0.025	0.6062 ± 0.0026	0.37 ± 0.019	0.394 ± 0.033	0.57 ± 0.035	0.471 ± 0.072
RVVITYLVLSNR	0.648 ± 0.06	0.686 ± 0.013	0.509 ± 0.018	0.646 ± 0.011	0.522 ± 0.039	0.505 ± 0.018	0.6445 ± 0.0056	0.547 ± 0.094
RWALPALWAYAA	0.493 ± 0.029	0.715 ± 0.034	0.583 ± 0.025	0.7029 ± 0.007	0.0884 ± 0.011	0.105 ± 0.012	0.16 ± 0.05	0.146 ± 0.094
RWGLFIGIVIGF	0.146 ± 0.0085	0.211 ± 0.003	0.219 ± 0.037	0.338 ± 0.0087	0.235 ± 0.014	0.217 ± 0.024	0.317 ± 0.025	0.337 ± 0.021
RYQDLSDWRRIS	0.412 ± 0.02	0.6574 ± 0.0031	0.629 ± 0.0036	0.753 ± 0.028	0.073 ± 0.0096	0.0791 ± 0.017	0.0794 ± 0.017	0.159 ± 0.0075
RYTWHGICIVTR	0.43107 ± 0.00014	0.456 ± 0.013	0.312 ± 0.027	0.4805 ± 0.0035	0.285 ± 0.0063	0.313 ± 0.019	0.476 ± 0.0052	0.4401 ± 0.0033
SCCLLICIFFIF	0.317 ± 0.045	0.408 ± 0.065	0.306 ± 0.015	0.391 ± 0.064	0.227 ± 0.0076	0.231 ± 0.029	0.33 ± 0.0056	0.297 ± 0.0023
SCLSYRTRLLAF	0.52 ± 0.045	0.617 ± 0.011	0.477 ± 0.019	0.587 ± 0.0083	0.406 ± 0.0086	0.41 ± 0.014	0.504 ± 0.011	0.49 ± 0.0059
SCRCIIFVCCFW	0.256 ± 0.0043	0.404 ± 0.032	0.262 ± 0.025	0.465 ± 0.057	0.235 ± 0.0024	0.237 ± 0.034	0.388 ± 0.023	0.384 ± 0.011
SFFVCAGFWVLC	0.419 ± 0.0091	0.511 ± 0.081	0.347 ± 0.025	0.539 ± 0.049	0.248 ± 0.011	0.289 ± 0.016	0.456 ± 0.0091	0.363 ± 0.024
SFLCGCVVCWLW	0.464 ± 0.063	0.547 ± 0.039	0.397 ± 0.026	0.552 ± 0.011	0.4 ± 0.027	0.396 ± 0.014	0.505 ± 0.0073	0.449 ± 0.04
SFLVRFVYFFAL	0.54 ± 0.043	0.619 ± 0.025	0.549 ± 0.021	0.6696 ± 0.0039	0.229 ± 0.02	0.232 ± 0.027	0.309 ± 0.017	0.314 ± 0.019
SFQLVFLCVLIW	0.136 ± 0.0088	0.129 ± 0.008	0.155 ± 0.024	0.237 ± 0.0049	0.203 ± 0.011	0.154 ± 0.0091	0.184 ± 0.011	0.218 ± 0.029
SFTPPRVCLCFS	0.465 ± 0.04	0.503 ± 0.008	0.319 ± 0.029	0.5205 ± 0.0047	0.2778 ± 0.002	0.3 ± 0.024	0.496 ± 0.02	0.3999 ± 0.0022
SFVCFFLNLFVY	0.0549 ± 0.013	0.138 ± 0.013	0.172 ± 0.032	0.272 ± 0.017	0.123 ± 0.021	0.123 ± 0.019	0.18 ± 0.018	0.164 ± 0.0077
SGCWGRRLWFFN	0.668 ± 0.04	0.791 ± 0.018	0.66 ± 0.037	0.7567 ± 0.0052	0.189 ± 0.018	0.235 ± 0.016	0.453 ± 0.011	0.325 ± 0.065
SIFWWWLVFILG	0.469 ± 0.0093	0.4759 ± 0.0034	0.362 ± 0.02	0.502 ± 0.008	0.366 ± 0.018	0.368 ± 0.026	0.462 ± 0.011	0.418 ± 0.085
SIIRHLFHPSST	0.67 ± 0.026	0.7184 ± 0.0046	0.643 ± 0.0091	0.72688 ± 9e-05	0.65 ± 0.018	0.659 ± 0.03	0.695 ± 0.018	0.709 ± 0.013
SIPFWPVLFFLL	0.353 ± 0.021	0.475 ± 0.014	0.494 ± 0.018	0.6088 ± 0.0044	0.0877 ± 0.011	0.091 ± 0.011	0.0952 ± 0.0057	0.14 ± 0.033
SIRIIVVVRGAS	0.528 ± 0.048	0.628 ± 0.056	0.433 ± 0.023	0.61 ± 0.071	0.393 ± 0.024	0.41 ± 0.017	0.543 ± 0.02	0.382 ± 0.12
